B1: STK38L (parent)
chain: RQLAYSTVGTPDYIAPEVFMQTGY
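Further: lentivirally expressed fusions sorted by FACS into six bins by GFP to DsRed ratio, PSI derived from sequencing read proportions per bin multiplied by bin number.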

In this data set the parent is B1. Put plainly: protein stability index of a GFP-peptide fusion (GPS, HEK-293T) (PSI 1-6); higher = more stable. Particulars: c terminus: a fixed tail appended.
For RQLAYSTVGTPTYIAPEVFMQTGY [D12T], the protein stability index turned out to be 2.91.

As to RQLAYSTVGTPSYIAPEVFMQTGY [D12S], the protein stability index stood at 2.68.

Turning to RQLAYSTVGTPNYIAPEVFMQTGY [D12N], the protein stability index worked out at 2.76.

Regarding RQLAYSTVGTPVYIAPEVFMQTGY [D12V], the protein stability index worked out at 1.59.

For the variant RQLAYSTVGTPCYIAPEVFMQTGY [D12C], the protein stability index worked out at 1.98.

As for RQLAYSTVGTPKYIAPEVFMQTGY [D12K], the protein stability index turned out to be 2.31.

With RQLAYSTVGTPWYIAPEVFMQTGY [D12W], the protein stability index was 2.08.

RQLAYSTVGTPHYIAPEVFMQTGY [D12H]: the protein stability index worked out at 2.54.

Take RQLAYSTVGTPQYIAPEVFMQTGY [D12Q]: the protein stability index came to 2.72.

RQLAYSTVGTPGYIAPEVFMQTGY [D12G]: the protein stability index was 2.11.

Regarding RQLAYSTVGTPFYIAPEVFMQTGY [D12F], the protein stability index is 1.98.

RQLAYSTVGTPIYIAPEVFMQTGY [D12I]: the protein stability index turned out to be 1.81.

As for RQLAYSTVGTPYYIAPEVFMQTGY [D12Y], the protein stability index was determined as 1.82.

As to RQLAYSTVGTPAYIAPEVFMQTGY [D12A], the protein stability index was 2.21.

For the variant RQLAYSTVGTPMYIAPEVFMQTGY [D12M], the protein stability index turned out to be 2.59.

Regarding RQLAYSTVGTPEYIAPEVFMQTGY [D12E], the protein stability index turned out to be 2.43.

Take RQLAYSTVGTPLYIAPEVFMQTGY [D12L]: the protein stability index is 2.43.

With RQLAYSTVGTPRYIAPEVFMQTGY [D12R], the protein stability index worked out at 3.

In the case of RQLAYSTVGTPDAIAPEVFMQTGY [Y13A], the protein stability index came out at 2.9.

For the variant RQLAYSTVGTPDKIAPEVFMQTGY [Y13K], the protein stability index is 2.92.

Regarding RQLAYSTVGTPDPIAPEVFMQTGY [Y13P], the protein stability index was determined as 2.75.

For RQLAYSTVGTPDDIAPEVFMQTGY [Y13D], the protein stability index stood at 3.26.

Turning to RQLAYSTVGTPDHIAPEVFMQTGY [Y13H], the protein stability index was determined as 2.42.

For the variant RQLAYSTVGTPDNIAPEVFMQTGY [Y13N], the protein stability index stood at 3.57.

In the case of RQLAYSTVGTPDLIAPEVFMQTGY [Y13L], the protein stability index was determined as 2.15.

As to RQLAYSTVGTPDFIAPEVFMQTGY [Y13F], the protein stability index turned out to be 1.93.

On to RQLAYSTVGTPDGIAPEVFMQTGY [Y13G], for which the protein stability index came out at 3.08.

In the case of RQLAYSTVGTPDMIAPEVFMQTGY [Y13M], the protein stability index amounted to 2.57.

On to RQLAYSTVGTPDEIAPEVFMQTGY [Y13E], for which the protein stability index amounted to 3.29.

On to RQLAYSTVGTPDIIAPEVFMQTGY [Y13I], for which the protein stability index was found to be 3.12.

For RQLAYSTVGTPDCIAPEVFMQTGY [Y13C], the protein stability index came to 3.

Consider RQLAYSTSGTPDYIAPEVFMQTGY [V8S], for which the protein stability index is 2.6.

Regarding RQLAYSTTGTPDYIAPEVFMQTGY [V8T], the protein stability index is 2.83.

With RQLAYSTRGTPDYIAPEVFMQTGY [V8R], the protein stability index was found to be 2.25.

Take RQLAYSTQGTPDYIAPEVFMQTGY [V8Q]: the protein stability index was found to be 2.63.

On to RQLAYSTWGTPDYIAPEVFMQTGY [V8W], for which the protein stability index was found to be 2.5.

For RQLAYSTYGTPDYIAPEVFMQTGY [V8Y], the protein stability index is 1.74.

Regarding RQLAYSTVGVPDYIAPEVFMQTGY [T10V], the protein stability index is 2.27.

For RQLAYSTVGWPDYIAPEVFMQTGY [T10W], the protein stability index worked out at 1.72.

Turning to RQLAYSTVGQPDYIAPEVFMQTGY [T10Q], the protein stability index turned out to be 3.41.

With RQLAYSTVGGPDYIAPEVFMQTGY [T10G], the protein stability index stood at 3.01.

Regarding RQLAYSTVGIPDYIAPEVFMQTGY [T10I], the protein stability index worked out at 1.3.

For the variant RQLAYSTVGEPDYIAPEVFMQTGY [T10E], the protein stability index worked out at 2.89.

With RQLAYSTVGLPDYIAPEVFMQTGY [T10L], the protein stability index was 1.96.

RQLAYSTVGYPDYIAPEVFMQTGY [T10Y]: the protein stability index is 1.72.

As to RQLAYSTVGHPDYIAPEVFMQTGY [T10H], the protein stability index worked out at 2.36.

For the variant RQLAYSTVGNPDYIAPEVFMQTGY [T10N], the protein stability index is 2.05.

Consider RQLAYSTVGKPDYIAPEVFMQTGY [T10K], for which the protein stability index was determined as 2.17.

For RQLAYSTVGRPDYIAPEVFMQTGY [T10R], the protein stability index worked out at 2.86.

As for RQLAYSTVGCPDYIAPEVFMQTGY [T10C], the protein stability index came out at 2.18.

Turning to RQLAYSTVGFPDYIAPEVFMQTGY [T10F], the protein stability index was determined as 1.73.

RQLAYSTVGAPDYIAPEVFMQTGY [T10A]: the protein stability index amounted to 2.88.

As to RQLAYSTVGMPDYIAPEVFMQTGY [T10M], the protein stability index was found to be 2.61.

With RQLAYSTVGDPDYIAPEVFMQTGY [T10D], the protein stability index was 2.16.

Regarding RQLAYSTVGPPDYIAPEVFMQTGY [T10P], the protein stability index is 2.48.

As for RQLAYSTVGSPDYIAPEVFMQTGY [T10S], the protein stability index is 1.42.

Regarding RQLAYSTVGTIDYIAPEVFMQTGY [P11I], the protein stability index amounted to 2.

RQLAYSTVGTKDYIAPEVFMQTGY [P11K]: the protein stability index amounted to 2.59.

With RQLAYSTVGTEDYIAPEVFMQTGY [P11E], the protein stability index turned out to be 3.13.

In the case of RQLAYSTVGTYDYIAPEVFMQTGY [P11Y], the protein stability index turned out to be 2.57.

RQLAYSTVGTGDYIAPEVFMQTGY [P11G]: the protein stability index was determined as 3.

Regarding RQLAYSTVGTMDYIAPEVFMQTGY [P11M], the protein stability index worked out at 2.18.

As to RQLAYSTVGTVDYIAPEVFMQTGY [P11V], the protein stability index turned out to be 1.89.

As to RQLAYSTVGTRDYIAPEVFMQTGY [P11R], the protein stability index came to 1.8.

With RQLAYSTVGTLDYIAPEVFMQTGY [P11L], the protein stability index worked out at 2.2.

For RQLAYSTVGTQDYIAPEVFMQTGY [P11Q], the protein stability index came to 2.49.

For the variant RQLAYSTVGTNDYIAPEVFMQTGY [P11N], the protein stability index was 2.78.

Consider RQLAYSTVGTHDYIAPEVFMQTGY [P11H], for which the protein stability index was 2.58.

As to RQLAYSTVGTSDYIAPEVFMQTGY [P11S], the protein stability index turned out to be 2.63.

Turning to RQLAYSTVGTADYIAPEVFMQTGY [P11A], the protein stability index came out at 2.64.

In the case of RQLAYSTVGTFDYIAPEVFMQTGY [P11F], the protein stability index is 1.85.

Turning to RQLAYSTVGTTDYIAPEVFMQTGY [P11T], the protein stability index was 2.44.

Regarding RQLAYSTVGTDDYIAPEVFMQTGY [P11D], the protein stability index is 2.36.

RQLAYSTVGTWDYIAPEVFMQTGY [P11W]: the protein stability index stood at 2.29.

For RQLAYSTVGTCDYIAPEVFMQTGY [P11C], the protein stability index was 2.57.

Turning to RQLAYSTVYTPDYIAPEVFMQTGY [G9Y], the protein stability index is 2.9.

Take RQLAYSTVPTPDYIAPEVFMQTGY [G9P]: the protein stability index came out at 2.6.

Take RQLAYSTVVTPDYIAPEVFMQTGY [G9V]: the protein stability index stood at 1.98.

Take RQLAYSTVITPDYIAPEVFMQTGY [G9I]: the protein stability index is 2.17.

For RQLAYSTVNTPDYIAPEVFMQTGY [G9N], the protein stability index amounted to 2.62.

Regarding RQLAYSTVLTPDYIAPEVFMQTGY [G9L], the protein stability index is 3.14.

Turning to RQLAYSTVHTPDYIAPEVFMQTGY [G9H], the protein stability index was determined as 2.42.

In the case of RQLAYSTVCTPDYIAPEVFMQTGY [G9C], the protein stability index was 1.97.

Regarding RQLAYSTVRTPDYIAPEVFMQTGY [G9R], the protein stability index came out at 2.65.

Take RQLAYSTVMTPDYIAPEVFMQTGY [G9M]: the protein stability index was 2.59.

Turning to RQLAYSTVWTPDYIAPEVFMQTGY [G9W], the protein stability index turned out to be 1.89.

For RQLAYSTVDTPDYIAPEVFMQTGY [G9D], the protein stability index is 3.15.

On to RQLAYSTVATPDYIAPEVFMQTGY [G9A], for which the protein stability index was found to be 2.63.

RQLAYSTVETPDYIAPEVFMQTGY [G9E]: the protein stability index was 2.71.

In the case of RQLAYSTVQTPDYIAPEVFMQTGY [G9Q], the protein stability index was 2.77.

As to RQLAYSTVFTPDYIAPEVFMQTGY [G9F], the protein stability index came to 2.27.

Consider RQLAYSTVKTPDYIAPEVFMQTGY [G9K], for which the protein stability index turned out to be 2.24.

Regarding RQLAYSTVTTPDYIAPEVFMQTGY [G9T], the protein stability index worked out at 2.7.

As for RQLAYSTVSTPDYIAPEVFMQTGY [G9S], the protein stability index was determined as 2.37.
